The term Kd denotes the concentration at which binding is half-saturated. Low values mean higher affinity, high ones lower affinity. In general, stoichiometry N refers to a count of units in the complex or per binding partner.

From publication PMC5460017 come the findings set out here.

The target of test [1] is Mic60sol (Chaetomium thermophilum Mic60, residues 208–691) (Chaetomium thermophilum). Description: ITC; about 450 μM Mic19 construct in the syringe titrated into about 40 μM Mic60 construct in the cell; 10 °C; 20 mM HEPES/NaOH pH 7.5, 150 mM NaCl; untagged proteins.
For test [2] the target is unchanged. Description: native gel or EMSA; blue native (BN)-PAGE of purified Mic60 constructs. Background: A gel shift assay detects complexes by their altered migration in electrophoresis.
Test [3] shares this target. The test is described as follows: AUC; sedimentation velocity (40,000 r.p.m., 3.5 h) and sedimentation equilibrium (9,000 r.p.m.); 20 mM HEPES/NaOH pH 7.3, 150 mM NaCl, 7 °C; 0.02–2 mg ml^-1 Mic60sol.
For test [4], the target named is Mic60solΔMito (Chaetomium thermophilum Mic60, residues 208–608) (Chaetomium thermophilum). Description: native gel or EMSA; blue native (BN)-PAGE of purified Mic60 constructs.
Test [5] has as its target Mic60solΔMitoΔLBS2 (Chaetomium thermophilum Mic60, residues 208–582) (Chaetomium thermophilum). The description is as above.
In test [6] the target is full-length Mic19 (Chaetomium thermophilum) (Chaetomium thermophilum). Description: SEC; gel filtration of purified Mic19 and its C132S/C143S mutant; the dimers were sensitive to reducing agents in SDS–PAGE.

On to “C132S/C143S Mic19 mutant (Chaetomium thermophilum) (natural protein)”, for which, in test [1], the Kd amounted to 3.5 µM and the stoichiometry N came out at 1.
Take “Mic60sol (Chaetomium thermophilum Mic60, residues 208–691) (domain or fragment)”: the stoichiometry N in test [2] and in test [3] was 2 each time.
In the case of “Mic60solΔMito (Chaetomium thermophilum Mic60, residues 208–608) (domain or fragment)”, the stoichiometry N in test [4] was 2.
For the substance “Mic60solΔMitoΔLBS2 (Chaetomium thermophilum Mic60, residues 208–582) (domain or fragment)”, in test [5], the stoichiometry N came to 2.
As to “full-length Mic19 (Chaetomium thermophilum) (natural protein)”, in test [6], the percent dimers is 30% and the stoichiometry N turned out to be 2. In test [1], this substance returned a Kd of 0.17 µM and a stoichiometry N of 0.73.
